In patent publication US20200199241A1 (Chugai, published 2020):
Positions count from the first letter of the chain named. Numbers in names are those of the source.

T1: FcγRIIa type R (human, UniProt P12318 36-217)
T1 construct: also called FcγRIIaR; FcgRIIaR
T1 chain: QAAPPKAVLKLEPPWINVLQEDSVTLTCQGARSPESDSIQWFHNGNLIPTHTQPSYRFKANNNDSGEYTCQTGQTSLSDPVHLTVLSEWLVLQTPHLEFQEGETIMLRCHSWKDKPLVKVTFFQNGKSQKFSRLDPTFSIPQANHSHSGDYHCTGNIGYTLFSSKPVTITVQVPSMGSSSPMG

T2: FcγRIIb (human, UniProt P31994 43-217, limits assumed)
T2 construct: also called FcgRIIb; FcγIIB
T2 sequence: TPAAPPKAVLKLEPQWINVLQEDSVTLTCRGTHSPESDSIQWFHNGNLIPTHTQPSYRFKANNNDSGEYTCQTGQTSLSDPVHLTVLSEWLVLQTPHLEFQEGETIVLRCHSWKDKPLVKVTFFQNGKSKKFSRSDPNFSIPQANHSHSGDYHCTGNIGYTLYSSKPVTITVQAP

T3: FcγRIIa type H (human, UniProt P12318 36-217)
T3 construct: also called FcγRIIaH; FcγRIIH
T3 sequence: T1 chain with R133H

T4: FcγRIIb (human, UniProt P31994 43-217, limits assumed)
T4 construct: also called FcγIIB; CD32
T4 sequence: T2 sequence

T5: human FcγRIIa type H (human, UniProt P12318 36-217)
T5 construct: also called FcγRIIaH; FcγRIIa(H)
T5 sequence: T1 chain with R133H

T6: human FcγRIIb (human, UniProt P31994 43-217, limits assumed)
T6 construct: also called FcγIIB
T6 sequence: T2 sequence

T7: human FcγRIIa type R (human, UniProt P12318 36-217)
T7 construct: also called FcγRIIaR; FcγRIIa(R)
T7 chain: T1 chain

T8: FcγRIIa type R (human, UniProt P12318 36-217)
T8 construct: also called FcγRIIaR; FcγRIIa(R)
T8 chain: T1 chain

T9: FcγRIIa type H (human, UniProt P12318 36-217)
T9 construct: also called FcγRIIaH; FcγRIIa(H)
T9 sequence: T1 chain with R133H

B1: IL6R-BP078/IL6R-L (antibody, human IgG1)
heavy: QVQLQESGPGLVKPSETLSLTCAVSGHSISHDHAWSWVRQPPGEGLEWIGFISYSGITNYNPSLQGRVTISRDNSKNTLYLQMNSLRAEDTAVYYCARSLARTTAMDYWGEGTLVTVSSASTKGPSVFPLAPSSKSTSGGTAALGCLVKDYFPEPVTVSWNSGALTSGVHTFPAVLQSSGLYSLSSVVTVPSSSLGTQTYICNVNHKPSNTKVDKKVEPKSCDKTHTCPPCPAPELLGGDSVFLFPPKPKDTLMISRTPEVTCVVVDVSHEDPEVKFNWYVDGVEVHNAKTKPREEQYNSTYRVVSVLTVLHQDWLNGKEYKCKVSNKALPMPIEKTISKAKGQPREPQVYTLPPSRDELTKNQVSLTCLVKGFYPSDIAVEWESNGQPENNYKTTPPVLDSDGSFFLYSKLTVDKSRWQQGNVFSCSVMHEALHNHYTQESLSLSP
light: DIQMTQSPSSLSASVGDRVTITCRASQDISSYLNWYQQKPGKAPKLLIYYTSRLHSGVPSRFSGSGSGTDFTFTISSLQPEDIATYYCQQGNTLPYTFGQGTKVEIK
notes: IgG1; Fc variant of IL6R-B3; copies: 2 + 2
B2: IL6R-BP106/IL6R-L (antibody, human IgG1)
heavy: B1 heavy with H270D, M332A
light: B1 light
notes: as for B1
B3: IL6R-BP107/IL6R-L (antibody, human IgG1)
heavy: B1 heavy with H270E, M332A
light: B1 light
notes: as for B1
B4: IL6R-BP112/IL6R-L (antibody, human IgG1)
heavy: B1 heavy with P273G, M332A
light: B1 light
notes: as for B1
B5: IL6R-BP117/IL6R-L (antibody, human IgG1)
heavy: B1 heavy with K328D, M332A
light: B1 light
notes: as for B1
B6: IL6R-BP120/IL6R-L (antibody, human IgG1)
heavy: B1 heavy with K328E, M332A
light: B1 light
notes: as for B1
B7: IL6R-BP126/IL6R-L (antibody, human IgG1)
heavy: B1 heavy with K328L, M332A
light: B1 light
notes: as for B1
B8: IL6R-BP911/IL6R-L (antibody, human IgG1)
heavy: B1 heavy with M332K
light: B1 light
notes: as for B1
B9: IL6R-BP191/IL6R-L (antibody, human IgG1)
heavy: B1 heavy with E235D, H270D, P273G, K328A, M332K
light: B1 light
notes: Anti-IL-6R human IgG1 variant; copies: 2 + 2
B10: IL6R-BP185/IL6R-L (antibody, human IgG1)
heavy: B1 heavy with E235D, L236Y, G239D, P273G, K328A, M332K
light: B1 light
notes: as for B9
B11: IL6R-BP102/IL6R-L (antibody, human IgG1)
heavy: B1 heavy with S269Q, M332A
light: B1 light
notes: Alteration introduced into IL6R-B3; also called P238D/S267Q
B12: IL6R-BP103/IL6R-L (antibody, human IgG1)
heavy: B1 heavy with S269V, M332A
light: B1 light
notes: Alteration introduced into IL6R-B3; also called P238D/S267V
B13: IL6R-BP110/IL6R-L (antibody, human IgG1)
heavy: B1 heavy with H270N, M332A
light: B1 light
notes: Alteration introduced into IL6R-B3; also called P238D/H268N
B14: IL6R-BP116/IL6R-L (antibody, human IgG1)
heavy: B1 heavy with K328T, M332A
light: B1 light
notes: Alteration introduced into IL6R-B3; also called P238D/K326T
B15: IL6R-BP118/IL6R-L (antibody, human IgG1)
heavy: B1 heavy with K328S, M332A
light: B1 light
notes: Alteration introduced into IL6R-B3; also called P238D/K326S
B16: IL6R-BP119/IL6R-L (antibody, human IgG1)
heavy: B1 heavy with K328M, M332A
light: B1 light
notes: Alteration introduced into IL6R-B3; also called P238D/K326M
B17: IL6R-BP121/IL6R-L (antibody, human IgG1)
heavy: B1 heavy with K328Q, M332A
light: B1 light
notes: Alteration introduced into IL6R-B3; also called P238D/K326Q
B18: IL6R-BP912/IL6R-L (antibody, human IgG1)
heavy: B1 heavy with M332R
light: B1 light
notes: Alteration introduced into IL6R-B3; also called P238D/A330R

target: T10, FcγRIIIa type V (human, UniProt P08637 17-208, limits assumed); experiment: SPR (Biacore), FcγR over captured antibody
T10 construct: also called FcγRIIIaV; FcgRIIIaV
T10 sequence (P08637 other isoform, or with tags, fused parts or gaps limits assumed): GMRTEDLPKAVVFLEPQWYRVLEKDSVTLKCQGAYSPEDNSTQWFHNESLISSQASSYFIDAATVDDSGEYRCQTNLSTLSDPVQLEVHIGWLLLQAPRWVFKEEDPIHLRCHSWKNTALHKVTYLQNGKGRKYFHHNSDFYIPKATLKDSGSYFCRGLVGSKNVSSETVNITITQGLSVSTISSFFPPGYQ

| Binder | Kd |
| --- | --- |
| B1 | 78 µM |
| B2 | 55 µM |
| B3 | 63 µM |
| B4 | 69 µM |
| B5 | 67 µM |
| B6 | 79 µM |
| B7 | 56 µM |
| B8 | 58 µM |

Target: T1, FcγRIIa type R
Experiment: SPR (Biacore), FcγR over captured antibody

| Binder | Kd |
| --- | --- |
| B1 | 15 µM |
| B2 | 11 µM |
| B3 | 12 µM |
| B4 | 3.5 µM |
| B5 | 9.2 µM |
| B6 | 9.6 µM |
| B7 | 11 µM |
| B8 | 16 µM |

target: T11, FcγRIa (human, UniProt P12314 16-292, limits assumed); experiment: SPR (Biacore), FcγR over captured antibody
T11 construct: also called FcgRIa; CD64
T11 sequence (P12314 16-292 limits assumed): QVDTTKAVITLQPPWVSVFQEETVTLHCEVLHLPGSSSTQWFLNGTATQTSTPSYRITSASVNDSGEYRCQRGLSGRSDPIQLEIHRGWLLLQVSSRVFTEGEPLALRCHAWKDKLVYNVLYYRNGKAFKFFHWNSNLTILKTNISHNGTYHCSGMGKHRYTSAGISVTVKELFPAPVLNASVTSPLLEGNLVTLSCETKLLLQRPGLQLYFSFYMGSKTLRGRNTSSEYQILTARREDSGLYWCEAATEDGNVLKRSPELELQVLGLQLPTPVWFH

| Binder | Kd |
| --- | --- |
| B1 | 0.0082 µM |
| B2 | 0.004 µM |
| B3 | 0.0015 µM |
| B4 | 0.0065 µM |
| B5 | 0.0041 µM |
| B6 | 0.0066 µM |
| B7 | 0.0074 µM |
| B8 | 0.049 µM |

target: T2, FcγRIIb; experiment: SPR (Biacore), FcγR over captured antibody

| Binder | Kd |
| --- | --- |
| B1 | 1.1 µM |
| B2 | 0.93 µM |
| B3 | 0.93 µM |
| B4 | 0.32 µM |
| B5 | 0.8 µM |
| B6 | 1 µM |
| B7 | 1.4 µM |
| B8 | 0.89 µM |

target: T3, FcγRIIa type H; experiment: SPR (Biacore), FcγR over captured antibody

| Binder | Kd |
| --- | --- |
| B1 | 45 µM |
| B2 | 36 µM |
| B3 | 52 µM |
| B4 | 35 µM |
| B5 | 41 µM |
| B6 | 65 µM |
| B7 | 45 µM |
| B8 | 37 µM |

target: T4, FcγRIIb; experiment: SPR (Biacore); KD for FcγRIIaR divided by KD for FcγRIIb of the same antibody; column head in Table 52-1
Excerpt: (§1) Furthermore, KD(IIaR)/KD(IIb) and KD(IIaH)/KD(IIb) in the table respectively represent the value obtained by dividing the KD value of each variant for FcγRIIaR by the KD value of each variant for FcγRIIb, and the value obtained by dividing the KD value of each variant for FcγRIIaH by the KD value of each variant for FcγRIIb. KD(IIb) of the parent polypeptide/KD(IIb) of the altered polypeptide refers to the value obtained by dividing the KD value of the parent polypeptide for FcγRIIb by the KD value of each variant for FcγRIIb.

| Binder | KD(IIaR)/KD(IIb) |
| --- | --- |
| B9 | 20.3 |
| B10 | 12.6 |

target: T12, human FcγRIa (human, UniProt P12314 16-292, limits assumed); experiment: SPR (Biacore), binding amount relative to IL6R-BF648/IL6R-L = 100
T12 construct: also called CD64
T12 sequence (P12314 16-292 limits assumed): as above

| Binder | relative binding |
| --- | --- |
| B11 | 104 |
| B12 | 56 |
| B13 | 105 |
| B14 | 110 |
| B15 | 101 |
| B16 | 117 |
| B17 | 118 |
| B18 | 60 |

target: T13, human FcγRIIIa type V (human, UniProt P08637 17-208, limits assumed); experiment: as above
T13 construct: also called FcγRIIIaV; FcγRIIIa(V)
T13 sequence (P08637 other isoform, or with tags, fused parts or gaps limits assumed): as the sequence (P08637 other isoform, or with tags, fused parts or gaps limits assumed) above

| Binder | relative binding |
| --- | --- |
| B11 | 86 |
| B12 | 77 |
| B13 | 127 |
| B14 | 114 |
| B15 | 144 |
| B16 | 145 |
| B17 | 157 |
| B18 | 97 |

target: T5, human FcγRIIa type H; experiment: as above

| Binder | relative binding |
| --- | --- |
| B11 | 66 |
| B12 | 69 |
| B13 | 127 |
| B14 | 110 |
| B15 | 128 |
| B16 | 133 |
| B17 | 135 |
| B18 | 93 |

target: T6, human FcγRIIb; experiment: as above

| Binder | relative binding |
| --- | --- |
| B11 | 106 |
| B12 | 107 |
| B13 | 101 |
| B14 | 108 |
| B15 | 104 |
| B16 | 110 |
| B17 | 113 |
| B18 | 103 |

Target: T7, human FcγRIIa type R
Experiment: as above

| Binder | relative binding |
| --- | --- |
| B11 | 165 |
| B12 | 163 |
| B13 | 128 |
| B14 | 126 |
| B15 | 132 |
| B16 | 181 |
| B17 | 155 |
| B18 | 81 |

target: T4, FcγRIIb; experiment: SPR (Biacore); KD for FcγRIIaH divided by KD for FcγRIIb of the same antibody; column head in Table 52-1
Excerpt: as §1

| Binder | KD(IIaH)/KD(IIb) |
| --- | --- |
| B9 | 185 |
| B10 | 105 |

target: T4, FcγRIIb; experiment: ratio of SPR KD values, parent IL6R-B3/IL6R-L

| Binder | KD(IIb) of the parent polypeptide/KD(IIb) of altered polypeptide |
| --- | --- |
| B9 | 21.2 fold |
| B10 | 44.5 fold |

target: T14, FcγRIa (human, UniProt P12314 16-292, limits assumed); experiment: SPR (Biacore), method of Example 14
T14 construct: also called CD64
T14 sequence (P12314 16-292 limits assumed): as the sequence (P12314 16-292 limits assumed) above

| Binder | Kd |
| --- | --- |
| B9 | 0.004 µM |
| B10 | 0.063 µM |

Target: T8, FcγRIIa type R
Experiment: SPR (Biacore), method of Example 14

| Binder | Kd |
| --- | --- |
| B9 | 3 µM |
| B10 | 0.88 µM |

target: T9, FcγRIIa type H; experiment: SPR (Biacore), method of Example 14

| Binder | Kd |
| --- | --- |
| B9 | 27 µM |

target: T15, FcγRIIIa type V (human, UniProt P08637 17-208, limits assumed); experiment: SPR (Biacore), method of Example 14
T15 construct: also called FcγRIIIaV; FcγRIIIa(V)
T15 sequence (P08637 17-208 F176V limits assumed): as the sequence (P08637 other isoform, or with tags, fused parts or gaps limits assumed) above, with S179A counted along it

| Binder | Kd |
| --- | --- |
| B9 | 49 µM |
| B10 | 36 µM |

target: T4, FcγRIIb; experiment: SPR (Biacore), method of Example 14

| Binder | Kd |
| --- | --- |
| B9 | 0.15 µM |
| B10 | 0.069 µM |
